Data: patent publication US20250043290A1, “RNA SEQUENCES THAT INDUCE FLUORESCENCE OF SMALL MOLECULE FLUOROPHORES, MOLECULAR COMPLEXES, SENSORS, AND METHODS OF USE THEREOF” (CORNELL UNIVERSITY, priority 2021, published 2025)
Marks after values point to notes of the source that are not given here.

Tests used:
[1] = Photophysical properties of fluorophores and RNA-fluorophore complexes (Squash study); type: physicochemical
Procedure: All RNAs used for in vitro studies (except the initial hits from SELEX and the DE2-6 mutants) were purified using 8% denaturing PAGE (7M urea) and eluted in 0.3 M NaOAc (pH 5.2) overnight. The RNA was ethanol precipitated and quantified using absorbance in a NanoDrop 2000 spectrometer. All in vitro RNA properties were measured in 40 mM HEPES-KOH (pH 7.4), 100 mM KCl, 0.5 mM MgCl2 buffer unless specified.
Absorption, excitation, and emission spectra were measured using conditions where the RNA is in excess and the fluorophore is limiting to ensure that no free fluorophore contributes to the absorbance or fluorescence signal (FIGS. 7A-7D).
All quantum yields were determined by comparing each RNA-fluorophore complex with Broccli-DFHBI-1T or Corn-DFHO. All measurements for quantum yield were taken in the presence of excess RNA (10 μM final) compared to the fluorophores (0.2 μM final) to avoid interference from unbound fluorophore. The integral of the emission spectra for each Squash-fluorophore complex was compared with the corresponding integrals for Broccoli or Corn to calculate the quantum yield.

HEK293T cells = assay: RNA assemblies of multivalent Corn or Beetroot in cells; type: cell-based; settings: circular RNA, means±s.d.
Procedure: FIGS. 33A-33C provide the dissociation constant (Kd) of Beetroot homodimer. […] These RNAs were incubated at 20° C. for 12 hours and then analyzed using non-denaturing gel electrophoresis (FIG. 33A). The fraction of Beetroot monomer (FIG. 33B) and Beetroot dimer (FIG. 33C) were quantified after SYBR Gold staining. […] The RNA band marked with an asterisk (*) reflects an RNA side product from in vitro transcription. The same side product band was also observed in FIGS. 27B-27C. Quantification shown in […] is based on two independent experiments. FIG. 33D are images showing genetic encoding of simple macromolecular RNA assemblies in cells using Corn when circular RNAs containing 3 and 5 copies of Corn were expressed in HEK293T cells. Clusters of these Corn-containing RNAs were observed as large intracellular puncta. Data shown here is a representative image from three independent cell cultures. Scale bar, 20 μm. FIG. 33E is a graph showing the quantification of the fraction of Corn and Beetroot in the cell that accumulates in puncta. As the valency of Corn increases from three to five, the fraction of Corn participating in the RNA assembly increases from 28±12% to 57±14%. Compared to 5× Corn, a fraction of 27±11% of 5× Beetroot are participating in the Beetroot RNA assembly. Values are means±s.d. FIG. 33F is a graph showing quantification of RNA assembly size in cells. Shown are the size distribution of RNA assemblies created using the indicated multivalent Corn or Beetroot RNA. As the valency of Corn increases from three to five, an increase in the median RNA assembly size was noticed from 0.88±0.37 μm to 1.0±0.54 μm. Compared to 5× Corn, 5× Beetroot assembly has a size of 0.68±0.25 μm. Values are means±s.d.
For to live-cell fluorescence imagining experiments, HEK293T cells were seeded into 35-mm imaging dishes precoated with poly-D-lysine (Mattek Corporation, P35GC-1.5-14C) and mouse laminin I (Cultrex, 3401-010-02) with a cell density of 4.5×10^5 cells per dish. On the next day, HEK293T cells were transfected with DNA plasmids as indicated in figures with fluorescence imaging experiments using FuGENE HD. Transfections were performed according FuGENE HD manufacturer's instructions. HEK293T cells were then cultured for two days before imaging.
Prior to imaging experiments, HEK293T cells were incubated with 1 μl of Hoechst 33342 (Thermo Fisher Scientific, H3570) per 2 ml of imaging media (phenol red-free Dulbeco's modified Eagle's medium (Thermo Fisher Scientific 31053-028) supplemented with 10% fetal bovine serum (Corning 35-010-CV), 100 U ml-1 of penicillin and […] of streptomycin, 1× GlutaMAX (Thermo Fisher Scientific, 35050-061) and 1 mM sodium pyruvate (Thermo Fisher Scientific, 11360-070)). For imaging experiments of RNA-fluorophore complex, HEK293T cells were incubated with imaging media supplemented with a final concentration of 10 μM fluorophore (DFHO or DFAME) and 5 mM MgCl2 for one hour prior to imaging.
For all imaging experiments, an epifluorescence inverted microscope (Nikon Eclipse TE2000-E) was used equipped with a CoolSnap HQ2 CCD camera and a 130-W Nikon mercury lamp. The microscope and camera were controlled using the NIS-Elements Advanced Research software (Nikon). Cells were imaged with a 60× oil objective with a numerical aperture of 1.4 (Nikon) at 37° C. A FITC filter cube (with excitation filter 470±20 nm, dichroic mirror 495 nm (long pass) and emission filter 525±25 nm) was used for imaging GFP-N-peptide. A YFP filter cube (with excitation filter 500±12 nm, dichroic mirror 520 nm (long pass) and emission filter 542±13.5 nm) was used for imaging Corn-DFHO complex. A tetramethylrhodamine filter cube (with excitation filter 560±20 nm, dichroic mirror 585 nm (long pass) and emission filter 630±37.5 nm) was used for imaging mCherry-MCP and Beetroot-DFAME complex.

[2] = 40 mM HEPES-KOH (pH 7.4), 100 mM KCl, 0.5 mM MgCl2

Molecule	Emission maximum [1, 2]	Excitation maximum [1, 2]	Fluorescence quantum yield ([1]; compared with Broccoli-DFHBI-1T or Corn-DFHO)	Extinction coefficient ([1]; free DFHBI-1T, at 452 nm)	Brightness (extinction coefficient × quantum yield) ([1]; relative to Broccoli)	Fraction of RNA in the cell that accumulates in puncta (HEK293T cells)	RNA assembly size (HEK293T cells)
CC1=N/C(=C\c2cc(F)c(O)c(F)c2)C(=O)N1CC(F)(F)F [DFHBI-1T, (Z)-4-(3,5-difluoro-4-hydroxybenzylidene)-2-methyl-1-(2,2,2-trifluoroethyl)-1H-imidazol-5(4H)-one]	495 nm	426 nm	0.00098	19,900* M^−1cm^−1	0.12	–	–
5× Beetroot: circular RNA comprising 5× Beetroot fused to boxB, SEQ ID NO: 102 (nucleic acid, circular) AACCAUGCCGACUGAUGGCAGUACCGUAGGCGAAUUCUUGCCAUGUGUAUGUGGGAGGCCCGGAUAGCUCAGUCGGUAGAGCAGCGGCCGGUUAGGCAGAGGUGGGUGGUGUGGAGGAGUAUCUGUCCGGCCGCGGGUCCAGGGUUCAAGUCCCUGUUCGGGCCUCCCACAUACUCUGAUGAUCCAAAACUGCCCGAGGAUCAUUCAUGGCAAACUCGACGUUCGUCAGACUCCUCGCGAUGUCUAUGCGGGAGGCCCGGAUAGCUCAGUCGGUAGAGCAGCGGCCGGUUAGGCAGAGGUGGGUGGUGUGGAGGAGUAUCUGUCCGGCCGCGGGUCCAGGGUUCAAGUCCCUGUUCGGGCCUCCCGCAUAGUCUGAUCAUCCAAAACUGCCCGAGGGGAUGAUUCAUCGCGAAUCGCGACGAUCGUCACUACCGGUGACUCGCUAUCGGUUAUGGCAUGUACAACUUGCGACUUUGCCAUGUGUAUGUGGGAGGCCCGGAUAGCUCAGUCGGUAGAGCAGCGGCCGGUUAGGCAGAGGUGGGUGGUGUGGAGGAGUAUCUGUCCGGCCGCGGGUCCAGGGUUCAAGUCCCUGUUCGGGCCUCCCACAUACUCUGAUGAUCCACGCGUACAUUGGCCCUGAAAAAGGGCAAGCGAGGUACCAUCAUUCAUGGCAAAGUCGCAAGUAUCGGUCAACCUAGUGGGCCCAGUGACGAUCGUCGCCCAUCGCCUUGUGUCUGUUGGAGGCCCGGAUAGCUCAGUCGGUAGAGCAGCGGCCGGUUAGGCAGAGGUGGGUGGUGUGGAGGAGUAUCUGUCCGGCCGCGGGUCCAGGGUUCAAGUCCCUGUUCGGGCCUCCAACAGACUCUGACGAUCCAAAACUGCCCGAGGGGAUCGUUCAAGGCGAGAGCUCGUCUGACGAACGUCGAACUCGCCGUGUGUGUGUAGGAGGCCCGGAUAGCUCAGUCGGUAGAGCAGCGGCCGGUUAGGCAGAGGUGGGUGGUGUGGAGGAGUAUCUGUCCGGCCGCGGGUCCAGGGUUCAAGUCCCUGUUCGGGCCUCCUACACACUCUGACGAUCCAAAACUGCCCGAGGGGAUCGUUCACGGCGAACUCACGUCGGUGGAGCUAGCGCCUACGGUACUGCCAUCAGUCGGCGUGGACUGUAG	–	–	–	–	–	27±11%	0.68±0.25 μm
5× Corn: circular RNA containing five Corn monomers, same as 5X Corn-MS2, SEQ ID NO: 101 (nucleic acid, circular) AACCAUGCCGACUGAUGGCAGUACCGUAGGCGAAUUCUUGCCAUGUGUAUGUGGGAGGCCCGGAUAGCUCAGUCGGUAGAGCAGCGGCCGCGCGAUUCGAGGAAGGAGGUCUGAGGAGGUCACUGAAUCGCGCGGCCGCGGGUCCAGGGUUCAAGUCCCUGUUCGGGCCUCCCACAUACUCUGAUGAUCCAAAACUGCCCGAGGAUCAUUCAUGGCAAACUCGACGUUCGUCAGACUCCUCGCGAUGUCUAUGCGGGAGGCCCGGAUAGCUCAGUCGGUAGAGCAGCGGCCGCGCGAUUCGAGGAAGGAGGUCUGAGGAGGUCACUGAAUCGCGCGGCCGCGGGUCCAGGGUUCAAGUCCCUGUUCGGGCCUCCCGCAUAGUCUGAUCAUCCAAAACUGCCCGAGGGGAUGAUUCAUCGCGAAUCGCGACGAUCGUCACUACCGGUUCACUUUGUAGACCAGGCUGGUGUACAACUUGCGACUUUGCCAUGUGUAUGUGGGAGGCCCGGAUAGCUCAGUCGGUAGAGCAGCGGCCGCGCGAUUCGAGGAAGGAGGUCUGAGGAGGUCACUGAAUCGCGCGGCCGCGGGUCCAGGGUUCAAGUCCCUGUUCGGGCCUCCCACAUACUCUGAUGAUCCACGCGUAACAUGAGGAUCACCCAUGUCGAGGUACCAUCAUUCAUGGCAAAGUCGCAAGUAUCGGUCAACCUAGUGGGCCCAGUGACGAUCGUCGCCCAUCGCCUUGUGUCUGUUGGAGGCCCGGAUAGCUCAGUCGGUAGAGCAGCGGCCGCGCGAUUCGAGGAAGGAGGUCUGAGGAGGUCACUGAAUCGCGCGGCCGCGGGUCCAGGGUUCAAGUCCCUGUUCGGGCCUCCAACAGACUCUGACGAUCCAAAACUGCCCGAGGGGAUCGUUCAAGGCGAGAGCUCGUCUGACGAACGUCGAACUCGCCGUGUGUGUGUAGGAGGCCCGGAUAGCUCAGUCGGUAGAGCAGCGGCCGCGCGAUUCGAGGAAGGAGGUCUGAGGAGGUCACUGAAUCGCGCGGCCGCGGGUCCAGGGUUCAAGUCCCUGUUCGGGCCUCCUACACACUCUGACGAUCCAAAACUGCCCGAGGGGAUCGUUCACGGCGAACUCACGUCGGUGGAGCUAGCGCCUACGGUACUGCCAUCAGUCGGCGUGGACUGUAG	–	–	–	–	–	57±14%	1.0±0.54 μm
3× Corn: circular RNA containing 3 copies of Corn, SEQ ID NO: 100 (nucleic acid, circular) AACCAUGCCGACUGAUGGCAGUACCGUAGGCGAAUUCUUGCCAUGUGUAUGUGGGAGGCCCGGAUAGCUCAGUCGGUAGAGCAGCGGCCGCGCGAUUCGAGGAAGGAGGUCUGAGGAGGUCACUGAAUCGCGCGGCCGCGGGUCCAGGGUUCAAGUCCCUGUUCGGGCCUCCCACAUACUCUGAUGAUCCAAAACUGCCCGAGGAUCAUUCAUGGCAAACUCGACGUUCGUCAGACUCCUCGCGAUGUCUAUGCGGGAGGCCCGGAUAGCUCAGUCGGUAGAGCAGCGGCCGCGCGAUUCGAGGAAGGAGGUCUGAGGAGGUCACUGAAUCGCGCGGCCGCGGGUCCAGGGUUCAAGUCCCUGUUCGGGCCUCCCGCAUAGUCUGAUCAUCCAAAACUGCCCGAGGGGAUGAUUCAUCGCGAAUCGCGACGAUCGUCACUACCGGCGUCUGACGAACGUCGAACUCGCCGUGUGUGUGUAGGAGGCCCGGAUAGCUCAGUCGGUAGAGCAGCGGCCGCGCGAUUCGAGGAAGGAGGUCUGAGGAGGUCACUGAAUCGCGCGGCCGCGGGUCCAGGGUUCAAGUCCCUGUUCGGGCCUCCUACACACUCUGACGAUCCAAAACUGCCCGAGGGGAUCGUUCACGGCGAACUCACGUCGGUGGAGCUAGCGCCUACGGUACUGCCAUCAGUCGGCGUGGACUGUAG	–	–	–	–	–	28±12%	0.88±0.37 μm
